The data set in a line: label from the status in PepcDB records.
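Also: failed if final PepcDB status was selected cloned or expressed and not failed if soluble or beyond.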

As to “MTAPRYPRDMIGYGATPPNANWPGNARIAVQIVLNYEEGGENNILHGDAASEAFLSEIVGAAPWPGQRHWNMETIYEYGARAGFWRLHRLMRDLPVTVYGVATALARSPDQVAAMKSAGWEIASHGLKWVEHKDMPEEEERAQIAEAIRLHTEVTGSRPRGWYTGRCSMNTVRLASEAGIDYIADTYDDDLPYWKRIDGRDQLIVPYTLDCNDMRFATPQGFNSGDQFFAYLKDSFDALYAEGGEGAPKMLSIGLHCRLIGRPGRVMALKRFLDYARGHEDVWFATRLQIAEHWVREHPPVARTRPSEMPKADFVAAYGGIFEHSPWIAERAHGLELGPAHDTAGGLHNALCRMFRSASAEERLGVLTAHPDLAGKLAQAKRLTAESTSEQASAGLDALTDEERTTFTRLNTEYVARFGFPFIIAVRDHDKASILAAFQRRIGNDRETEFAEACRQVERIAEFRLRDVLPSLEHHHHHH”, the protein production result is “not failed”. For “MTASDDAPISTDRFMFGRAQRWLHWSMALLIFAAIGLGIVAAYYPSGQQPRQGLLELHKSIGFTILALLVVRIVLRLISGEPPYRRPLGHLTEMAARAGHLALYGLMLLMPLSGYLFSGAGGYSLPWFGLFQWPRLVPRDHALSEWGQVLHDRGAWVLGAVLALHLAAVCWHQFVKRDEVLSRMTGRASES” the value was “failed”; for “MTASDQFNSTHSAVDQYAELVLHNGRMYTLDPAQPWADAVAIRQGKLIAVGSLASLASLIGPNTRQHDLDGAFCMPGLHDMHTHPDLALAPRYADDLDVGIEDPTPEQLAAAIHAYADSHPGDGWIYGQYWVRYTFREAGLTPGREWLDSVMPHRPVALLDRMWGTMMVNSKALELAGIDRHTSDPRNGYLERDELTGEPNGLLIDGAYALIHAAMPPTPVSVLRRAYRDGVHFQTSRGVTATKYVHVCENRLQALKELDDAGELTLRVEAAISWQDDIFPVRRRWELLSGERHFYRSARLSANAVKFHFDGTVEPKSSYLLTPWPEESSWRGKLNLTPEHITDMVVDMDKRGLRVIAHCTGDGASDVFLDAVAEARRRNGNSGIRHQCAHSTLLHPGNLKRFQALDVIAEFSPAAWYPTPFASGARSGYGQERLKRIYDFKGVLAAGGIAVFGTDWPVASIDPWLALETMVTRQNPWNQEPDTFGDPISLEQALQVATLNGAHAMGLEHLTGSLEAGKSADLIVLDRDLFAQGARNYIHHTQVQLTFVEGQLVYDRQGTFSDTPLQAVWEGLPPVIEGKE”, “failed”. For “MTAVETKKQYLTVFKEDGIAEIHLHINKSNSYDLEFYKEFNAAIDDIRFDPDIKVVIVMSDVPKFFSAGADINFLRSADPRFKTQFCLFCNETLDKIARSPQVYIACLEGHTVGGGLEMALACDLRFMGDEAGKIGLPEVSLGVLAGTGGTQRLARLIGYSRALDMNITGETITPQEALEIGLVNRVFPQAETRERTREYARKLANSATYAVSNIKLAIMNGKEMPLNVAIRYEGELQNLLFRSEDAKEGLSAFLEKRQPNWKGI” the value was “not failed”; for “MTAVSLGPSPARRDALARRIRLLVTATIGYNVVEAVVAITAGTIASSTALIGFGLDSVIEVSSAAAVAWQFSARDPAVREAREKRTLRIIAFSFFALALYVTVDSVRALTGTGEAGHSVPGIVLAGLSLAIMPFLSAAQRKAGREIGSASAVADSKQTLLCTYLSAVLLVGLLVNLLLGWTWADPVAALVISAIAVKEGRDAWQGRGCCAAPTWATPQAGADTDNCDCCS”, “failed”; for “MTCANCATDVIYMAERQNERDDRQKLKNISFAKKILLGLSMYVPSSTFKKIVLKLLGAHIGKNVYFGPGSLVLSNDYSSVYIENNVFVAPGVLINVNNFTVGENSHLGYQCLMVGESLKIGSRCNISNRTFIECSYSPILIEDDVTIGGCAMVSTHDGSYRQVYGLEMKAAPIYIRSKAFIGNNAIILPGIEIGRKVIVGAGAVVTKNAVANSVICGVPADKIRTMEVSNENITGN”, “failed”.

With “MTDDRYTVISADCHAGADLLDYRPYLAKRHHDAFDAWAATYVNPYEDLLADTADRNWNSERRLAELAADGIVAEVVFPNTIPPFFPSASLMAPAPTAAEFEQRWAGLRAHNRWLADFCAAAPGRRAGVFQILLNDVEEAVKEISWAAGAGLRGGLLLPGTPPGSGLPELYSKAYDPIWAVCEELDVPVNHHAGSASPPLGDEPAARAVFMVETTWFSHRALWHLVFGGAFRRHPGLRLVLTEQGSGWIPGVLDMLDYYHGRLVAAGPKSATAEAKFGAGLDRAMGKGPSEVWRDNCFVGASFMRPHEVPLRDRIGLDKIMWGSDYPHDEGTYPYSREGLRIAYAGLPRTEIAAMAGGNAARVYGFDLSLLDPIAAKVGPTVAELARPLEEPPADATSPVFARGGSVRVW”, the protein production result is listed as “failed”.

On to “MTDFPTSLTAPKKGCEGCTGSPELGFSFDYAYQPIVNLHDQSIFAHEALVRGPNGEGAMSVLNQVTDQNRYRFDQKCRTTAIAGAAKLGMTERLSINFLPNAVYRPELCIRSTLEAAKQHDFPIERLIFETIESEHVDNNNHLSNILREYREFGFMTAIDDFGAGYSGLTLLADFQPDLIKLDMNLVRDIHRDRARQAIVRGVVTMCKDLGIKLIAEGIEHIEERDFLADCGISLMQGYLFAKPAFKALAQIAPEAWQKP”, for which the protein production entry is “not failed”. For “MTDIPAPAPAAEFWEARYRDTGRVWSGRPNELLVQEAGGLAPGTALDLGCGEGADAVWLASRGWRVTGVDISATALERAAGHADGAGVGDRVLWERHELGPSFPEGSFDLVSAHYLQSPVALDQQAVLRAAARAVAPGGTLLVVMHAGWPSWQTEPPFDAAFPTLDGVLAELALPEGEWSVETRRTARRPSVAPDGTEGFREDHVWRLKRAVFVE” the value was “failed”; for “MTDKRGNNGKTGLLFPAIFTIFVSIYAAGNYYVGLRFFQSIQSLIEPYSLFYWSGYAFLVISLFAGRLGKRFYPGYVNDLFAVTGNYWVGAVYYSLLIWAGIDVLHFLTSLIFPATRIIKYPSFYFGLAVLLLVFLLLLYGTWNARHPRIVHYDITIKKSVPDLPELHAVMVSDIHLGLVVDKDRLKEMVNRINELDPDVVFLAGDTIDEDVRLFASNKMPEILKKLKSRYGVYAVLGNHEYIGGNNELAVEYLQQAGIHVLVDKCIKVNNHFYVAGRDDRVAGRMNGKKRLELSRLVDGIDHTLPIILLDHQPINLKEGQLNGIDLQLSGHTHAGQFFPNTLISKRVFENSWGYLKKGECQIIVSAGFGTWGPPIRIGSNSEITDIKISFV”, “failed”.

Take “MTDLEHAVESNRRAWDASADSHLRGGGWQELSLAVQETGFSCLDETLAGVLRNLDLAGKAAVQVGCNNGREVLSLYAFGVARAVGIDQSAAFLAQARQLAERSPHQPRFVEANAYELPAELNGQFDLLLITIGVLNWMPDIARFFASVSGLLKPGGQLAIYETHPFLEMLEPESERPFELRNDYFTDTPHVSREAIVYEGSGSDTGIASYWYVHPLGDILGGLLGAGLRLSHFKEYPHSNREELYDLYEDGPLAIPMCYTLVAVKA”: the protein production result was “failed”.

Regarding “MTDLIYNDPDFVQFYDIENQDGRADFDYCVRLARDGGSVLDLGCGTGQLAAEMAQGCNVTGVDPASAMLDVARRRTGGDKVDWVVADARTVRLGRRFDLVLLTGHVFQVFLTDEDQRAVLRTIAEHLGPGGRFIFDTRNPAVEAWLEWTPQRSERMVEHPSLGTVRAWYDADWDAASAVVTYSTFYEIPGGRPILGAESKIAFPKKQDLAGMLDDAGLLVEQWLGDWQGEPYADTSPEIIPIGRLR”, the protein production result was “failed”. For “MTDNSQFHAASALVQAAHTVSVVGHLRPDADAIGSVAATVAALQQLGKDAVGAIGQLDSMPENLYTIPGASNIKFGDSLPESDLIIVVDCGSIERTGAFESIIVNNPDKVLVVDHHATNPGFGAVNLIDVEAESTTTILYDWFDAMSVQITPDIAHGLYAGLLTDTGCFRWGRPVMHDMAKELMEFGLDIRAISSALLDQTSVDDLRLVGQIVSRIELREAGPYTLAVLVADFDTINGRSRAVVEGLIEMVRAVEGADFGAVFKEYERGVYTVSLRSSNLSVASLAVHLGGGGHIPAAGYTARGTEIEALDTLIEATVTLGESLRSSAHVDVLEHHHHHH” the value was “not failed”; for “MTDPADRPLIERIRACRLCADRFAATHTAHEPRPVVWFRPGARLLIAGQAPGARVHASGRPFTDPSGDRLRDWLGIGEETFYDRSRVAVVPMAFCFPGYNSQGADLPPPPVCGKTWHNQVMGELGEMPLSVLVGGHALKYHLGARSPVTETVAAWRDHAPRVFALPHPSWRNTGWLRKNPWFEAELLPVLRARVKEVLNEPDRSANPD”, “failed”; for “MTDPEKLTALKKAYAETILNTAKEAAARVMITERKARGYQQELASVRDEALRACLRLKQIYDSKVKEAEMISLQKQQKIEELEAQLGEAEDIVGELRTELRESRYLLEKLANGCQTNLSKEEKAPNEAVSLEVREDSSNHERSVVASVIKPHMSDRDLSINRCSYKENKDPCLYTLPSILSRCREAEVVERNTINGDCADVESLTEARKEEAKENDIELSTTPLSPSEKQCIKFSYKRKHNKDGSNSPEGGGSSSQDDDDDDESRSRRHKTGEKDNAYLDSFTSTEPSRDSRRVAQVARQVSESR”, “failed”. As for “MTDPLIPVDTYLVDSLPEVWFGAVVFALGMYIVLDGFDFGIGMLYATRTDEHERETFLAAFGPVWDANEVWIVAFGTMLLAAFPRVYSRLLADNYLLALGFVVALVFRGLGPELREQREDERWKRYTDYAFVGGSVFAPLLLGMLAGRWLFAGATLPVVLTGVGLVAVSIVTGAAFLAAKTDSGLASELRSYGVGATVAYLGGVVVLLGTVVATDAGGAASAVLSLPVAAVVALSIVAGLGGSVLARRGRYRAWLASALALPTLLTLLVAVLLYPTVYPPTGLLVREAVVSPLALNLVTVLGFPVLLLVLWYFKFLYGVFSGPIEGEGYGG”, the entry is “failed”; as for “MTDQAVDTGGSQLPGNEQRPAAAPAPTVSQFLGRTRELKELRADIERAGLDTLSGRKAPRARVLLIAGRPGSGRTALAEELVRQVADRYRDGVLRARLTEPDGTPVPTERTARELLAALEVATPPGAAEDDLTEALREALADRRTLLLLDDVAAAEQVDALLPGTPDCLVVAVSEGPLTGIADVRPCTLGGLDTKSALELLGRLTGAVRITVDPRAAEGLVEECAGQPLALVLAGSWLAARPQAAVADLAKQLRSEGDEGPPTARLFRLAYAGLPATAQRILRLLSLAPAGLVDPHTASALAGCSVSAAHTTLDDFAALGLVRLLESPLPQYEVPGSLLPLLRALAESRERPAELQLARARMLERTVRLLQSCRAITETDSIEAREKLLGMPRTLRFPNPRAAADWLRVRQPALLAAARSAVADGELDTLARRLMSQLVRAMVAHFGTQASAPELYGIHRLVLDVAERRNLPREQAAALLNLADLDTRTGRTTEALARYRAALDAGREANDPYATGRAMESVGGAHQELGDYDRAADWYGRALAQRLARDERVDAARLYGRIATAHTYAGRYGEALRNWRSAVAGHRKNGDVAAQARALSELARVQEYAGRPEESLRTCQEAVEWARRADDVRLQAALQLRLADTLEHLGDPAAAKLHRGAAERMLGEELLESDSGAEQAPNACEIRSASSKD”, “failed”.

For the origin of these results see a protein production outcome set (Wang et al. 2014).
